In patent US7691590B2, “Reducing myelin-mediated inhibition of axon regeneration” (Children's Medical Center Corporation, priority 2001, dated 2010):
Each block holds one molecule with its values, some of them ahead of it.

What was measured:
[1] = system: chick E7 retinal ganglion neurons (RGN) expressing human NgR; assay: Growth cone collapse in E7 retinal ganglion neurons expressing FLAG-NgR (HSV infection); format: cell-based; details: E7 RGN infected with HSV FLAG-NgR
Source text: To assess whether NgR is capable of mediating OMgp-induced inhibitory activity on neurite outgrowth, we next took a gain-of-function approach to examine whether expression of NgR was able to confer OMgp-responsiveness to otherwise insensitive neurons. It has been shown previously that chick E7 retinal ganglion neurons (RGN) are insensitive to Nogo-66, but that introduction of exogenous NgR in these neurons rendered their growth cones to be responsive to Nogo-66^9. Using the same strategy, we made a recombinant herpes simplex virus (HSV) that drives expression of a FLAG-tagged full-length human NgR (FLAG-NgR) in infected neurons. Upon infection, 80% of the E7 RGNs expressed the FLAG-NgR protein as assessed by immunocytochemistry with an anti-FLAG antibody. […] Furthermore, the growth cones of NgR-expressing axons also become collapsible by OMgp.
Growth Cone Collapse and Neurite Outgrowth Assays. […] Infection of HSV-LacZ was detected by a standard b-galatosidase staining protocol^20. FLAG-NgR expression was detected by incubating paraformaldehyde-fixed cultures with M2 anti-FLAG antibody (Sigma). Bound antibody was detected by incubation with AP-conjugated […] IgG second antibody and reaction with NBT and BCIP (Vector labs). Growth cone collapse was quantified only in those positively stained for b-galatosidase or immunoreactive for the FLAG epitope.

[2] = system: growth cones of E13 chick DRG neurons; assay: Growth cone collapse assay with E13 chick DRG explants; format: cell-based; details: for growth cone collapsing activity after PI-PLC treatment of the neurons: PI-PLC pre-incubation, E13 chick DRG
Source text: OMgp is a Physiological Nogo Receptor Ligand and Inhibitor of Neurite Outgrowth. To examine whether any GPI-linked proteins in CNS myelin may act as inhibitors of neurite outgrowth, we treated purified bovine white matter myelin with phosphatidylinositol-specific phospholipase C (PI-PLC) and examined the released proteins for their ability to alter growth cone morphology in a growth cone collapse assay using embryonic day 13 chick dorsal root ganglia (E13 DRG)^6,9,10. […] Since the size of this band was similar to that of a previously identified CNS myelin protein OMgp^11,12, we used antibodies specific for OMgp to detect enrichment of cleaved OMgp in the PI-PLC supernatants by Western blot. […] Next, we examined whether purified recombinant OMgp protein was able to act as an inhibitor of neurite outgrowth in two well-established in vitro assays, the growth cone collapse^6,9,13 and the neurite outgrowth assays^3-7,9.
Growth Cone Collapse and Neurite Outgrowth Assays. Chick E13 DRG and E7 retina were isolated and cultured as described previously^9,10. DRG explants cultured overnight were used for growth cone collapse assays. To assess the effects of PI-PLC treatment, cultures were pre-incubated with 2 U/ml PI-PLC for 30 min prior to treatment with individual test proteins for an additional 30 min. To express NgR in E7 retinal ganglion neurons, we infected the explants with recombinant HSV for 24 hr. After incubation with each test protein for 30 min, retinal explants were fixed in 4% paraformaldehyde and 15% sucrose. Infection of HSV-LacZ was detected by a standard b-galatosidase staining protocol^20. FLAG-NgR expression was detected by incubating paraformaldehyde-fixed cultures with M2 anti-FLAG antibody (Sigma). Bound antibody was detected by incubation with AP-conjugated […] IgG second antibody and reaction with NBT and BCIP (Vector labs). Growth cone collapse was quantified only in those positively stained for b-galatosidase or immunoreactive for the FLAG epitope.

[3] = target: T1, GST-NgR (extracellular domain of NgR) (Homo sapiens, UniProt Q9BZR6); assay: Co-precipitation with GST-NgR on glutathione-Agarose beads; format: binding; details: cell surface binding and co-precipitation assay
T1 construct: a GST fusion protein containing the entire extracellular domain of NgR (GST-NgR); made in house; OM-his made in COS-7 cells
T1 sequence (Q9BZR6 27-447 limits assumed): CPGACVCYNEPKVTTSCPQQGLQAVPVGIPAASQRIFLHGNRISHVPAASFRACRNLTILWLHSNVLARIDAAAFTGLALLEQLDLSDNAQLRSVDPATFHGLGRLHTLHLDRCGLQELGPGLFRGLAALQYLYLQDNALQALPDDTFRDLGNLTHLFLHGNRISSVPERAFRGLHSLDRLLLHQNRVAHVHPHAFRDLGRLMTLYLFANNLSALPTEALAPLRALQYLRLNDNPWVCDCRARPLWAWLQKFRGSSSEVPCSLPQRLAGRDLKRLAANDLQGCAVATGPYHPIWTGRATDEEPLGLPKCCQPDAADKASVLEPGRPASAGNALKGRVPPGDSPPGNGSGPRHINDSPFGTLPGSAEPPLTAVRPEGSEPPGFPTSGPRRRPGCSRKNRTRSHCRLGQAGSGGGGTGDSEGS
Description: To investigate the mechanisms by which OMgp inhibits neurite outgrowth, we used an expression cloning strategy^9,13,16 to identify cell surface OMgp-binding proteins. […] From pools of an adult human brain cDNA expression library, we isolated two cDNAs that encoded OMgp-binding proteins. […] We then established a CHO cell line stably expressing the NgR and determined the binding affinity of expressed NgR for AP-OM as 5 nM, similar to what had been determined for Nogo-66 (7 nM, ref. 9). […] We next performed co-precipitation experiments by incubating GST or a GST fusion protein containing the entire extracellular domain of NgR (GST-NgR) with OM-his alone or in the presence of AP or AP-66 protein. […] We next determined which domain(s) of OMgp was responsible for binding to NgR. Like NgR, OMgp is also a GPI-linked protein containing a leucine-rich repeat (LRR) domain. […] In addition, the C-terminal domain with serine-threonine repeats (AP-S/T) alone was also able to bind, though less strongly, to NgR expressing cells.
In co-precipitation experiments, 2 mg GST or GST-NgR were first immobilized to glutathione-Agarose beads and the beads were further incubated with or without 1 mg OM-his in the presence of 2 mg of AP or AP-66 at 4° C. for 2 hr. After extensive washing, the bound proteins were resolved with SDS-PAGE and detected by Western blotting.

B1: OMgp: oligodendrocyte-myelin glycoprotein, GPI-anchored CNS myelin protein (protein, UniProt P23515 25-417, looked up)
Oligodendrocyte-myelin …: ICPLQCICTERHRHVDCSGRNLSTLPSGLQENIIHLNLSYNHFTDLHNQLTQYTNLRTLDISNNRLESLPAHLPRSLWNMSAANNNIKLLDKSDTAYQWNLKYLDVSKNMLEKVVLIKNTLRSLEVLNLSSNKLWTVPTNMPSKLHIVDLSNNSLTQILPGTLINLTNLTHLYLHNNKFTFIPDQSFDQLFQLQEITLYNNRWSCDHKQNITYLLKWMMETKAHVIGTPCSTQISSLKEHNMYPTPSGFTSSLFTVSGMQTVDTINSLSVVTQPKVTKIPKQYRTKETTFGATLSKDTTFTSTDKAFVPYPEDTSTETINSHEAAAATLTIHLQDGMVTNTSLTSSTKSSPTPMTLSITSGMPNNFSEMPQQSTTLNLWREETTTNVKTPLPS
- growth cone collapse response in NgR-expressing neurons [1]: collapsible
- growth cone collapsing activity after PI-PLC treatment of the neurons [2]: abolished

- competition for binding to NgR [3]: competed for binding to NgR
B2: AP-66: alkaline phosphatase fusion protein containing the 66 amino acid extracellular domain of Nogo-A (protein)
chain: RIYKGVIQAIQKSDEGHPFRAYLESEVAISEELVQKYSNSALGHVNCTIKELRRLFLVDDLVDSLK
modifications: also: fused to alkaline phosphatase
notes: alkaline phosphatase fusion protein containing the 66 amino acid extracellular domain of Nogo-A
- EC50 ([2]; E13 chick DRG growth cones, read-out: effective concentration for half-maximal response (EC50), growth cone collapse): 2.3 nM

B3: Semaphorin 3A: control growth cone collapsing protein acting through neuropilin-1 and plexin receptors (protein, UniProt Q14563 21-771, looked up)
Semaphorin-3A: NYQNGKNNVPRLKLSYKEMLESNNVITFNGLANSSSYHTFLLDEERSRLYVGAKDHIFSFDLVNIKDFQKIVWPVSYTRRDECKWAGKDILKECANFIKVLKAYNQTHLYACGTGAFHPICTYIEIGHHPEDNIFKLENSHFENGRGKSPYDPKLLTASLLIDGELYSGTAADFMGRDFAIFRTLGHHHPIRTEQHDSRWLNDPKFISAHLISESDNPEDDKVYFFFRENAIDGEHSGKATHARIGQICKNDFGGHRSLVNKWTTFLKARLICSVPGPNGIDTHFDELQDVFLMNFKDPKNPVVYGVFTTSSNIFKGSAVCMYSMSDVRRVFLGPYAHRDGPNYQWVPYQGRVPYPRPGTCPSKTFGGFDSTKDLPDDVITFARSHPAMYNPVFPMNNRPIVIKTDVNYQFTQIVVDRVDAEDGQYDVMFIGTDVGTVLKVVSIPKETWYDLEEVLLEEMTVFREPTAISAMELSTKQQQLYIGSTAGVAQLPLHRCDIYGKACAECCLARDPYCAWDGSACSRYFPTAKRRTRRQDIRNGDPLTHCSDLHHDNHHGHSPEERIIYGVENSSTFLECSPKSQRALVYWQFQRRNEERKEEIRVDDHIIRTDQGLLLRSLQQKDSGNYLCHAVEHGFIQTLLKVTLEVIDTEHLEELLHKDDDGDGSKTKEMSNSMTPSQKVWYRDFMQLINHPNLNTMDEFCEQVWKRDRKQRRQRPGHTPGNSNKWKHLQENKKGRNRRTHEFERAPRSV
- growth cone collapsing activity after PI-PLC treatment of the neurons [2]: not affected
